Measured values taken from patent US9260500B2, “Peptide and use thereof” (Takeda Pharmaceutical Company Limited, priority 2009, dated 2016).
Non-standard residues stand in square brackets, D forms with d. *: point of attachment. X2 = (tetrahydro-2H-pyran-4-ylmethyl)carbamoyl, O=C(NCC1CCOCC1)*; X7 = (tetrahydro-2H-pyran-4-yl)carbamoyl, O=C(NC1CCOCC1)*; (5-carboxypentyl)carbamoyl = O=C(O)CCCCCNC(=O)*; (3-carboxypropyl)carbamoyl = O=C(O)CCCNC(=O)*; (carboxymethyl)carbamoyl = O=C(O)CNC(=O)*; Tetrahydropyran4carbonyl = O=C(C1CCOCC1)*; 4Pal = N[C@@H](Cc1ccncc1)C(=O)O; Cha = N[C@@H](CC1CCCCC1)C(=O)O; Iva = CC[C@](C)(N)C(=O)O; Aib = CC(C)(N)C(=O)O

Experiments:
male C57EL/6J mice = assay: 3-Days Continuous Subcutaneous Administration Test-1 (food intake suppressing activity); type: in vivo, mouse; details: 0.03 mg/kg/day, subcutaneous Alzet pump, food consumption over 3 days; relative to food intake suppression rate for PYY(3-36) (1 mg/kg/day) taken as 100%
How it was run: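 Male […] mice, 12-13 weeks, received compound at 0.03 mg/kg/day by subcutaneous osmotic pump (50% DMSO vehicle), housed singly with free food access. Food consumed over 3 days measured; suppression expressed relative to PYY(3-36) (1 mg/kg/day) set as 100%.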

human Y2 receptor [1] = target: T1, human Y2 receptor (Homo sapiens, UniProt P49146); assay: Receptor Binding Assay (RBA) for Human Y2, [125I]-PYY displacement on hY2R/CHO membrane fraction; details: IC50 of test compound/IC50 of PYY(3-36) (PYY(3-36) taken as 1)
T1 construct: expressed in transfected cells; membrane fraction
T1 sequence (P49146 1-381): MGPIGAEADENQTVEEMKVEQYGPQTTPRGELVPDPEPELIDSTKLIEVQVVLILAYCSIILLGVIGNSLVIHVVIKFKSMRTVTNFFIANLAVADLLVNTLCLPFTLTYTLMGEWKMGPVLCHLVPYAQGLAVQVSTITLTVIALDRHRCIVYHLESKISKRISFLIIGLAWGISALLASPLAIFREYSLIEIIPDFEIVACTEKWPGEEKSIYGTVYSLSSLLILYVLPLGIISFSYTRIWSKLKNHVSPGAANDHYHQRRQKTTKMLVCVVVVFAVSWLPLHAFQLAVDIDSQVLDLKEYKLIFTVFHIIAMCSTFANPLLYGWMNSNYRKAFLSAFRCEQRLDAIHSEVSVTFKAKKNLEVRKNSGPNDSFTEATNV
How it was run: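 Read-out is [125I]-PYY displacement from membranes of CHO/dhfr− cells stably transfected with human Y2R. Membranes were obtained by disrupting cells in a buffer of 10 mM NaHCO3, 5 mM EDTA and protease inhibitors.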

human Y2 receptor [2] = target: T1, human Y2 receptor; assay: Human Y2 Receptor G Protein Binding Assay (GBA), [35S]GTPγS; type: biochemical; details: EC50 of test compound/EC50 of PYY(3-36) (PYY3-36 taken as 1), hY2R/CHO membrane fraction
How it was run: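 Agonism measured as [35S]GTPγS binding, read by GF/C filtration and scintillation counting after 120 min at room temperature, using human Y2 membranes at 1 μg protein/mL in pH 7.4 Tris/MgCl2/NaCl/GDP buffer. Compound serially diluted 100 μM–1 nM; EC50 normalized to PYY(3-36) (ratio = compound/PYY).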

Row | Substance | food intake suppression rate (%) (male C57EL/6J mice) | RBA IC50 Ratio (human Y2 receptor [1]) | GBA EC50 Ratio (human Y2 receptor [2])
1 | (3-carboxypropyl)carbamoyl-[D-Pro24, Pya(4)26, Cha27,36, Aib28,31, Lys30]-PYY(23-36) ({(3-carboxypropyl)carbamoyl}-S[dP]R[4Pal][Cha][Aib]NK[Aib]TRQR[Cha]-NH2; SMILES C[C@@H](O)[C@H](NC(=O)C(C)(C)NC(=O)[C@H](CCCCN)NC(=O)[C@H](CC(N)=O)NC(=O)C(C)(C)NC(=O)[C@H](CC1CCCCC1)NC(=O)[C@H](Cc1ccncc1)NC(=O)[C@H](CCCNC(=N)N)NC(=O)[C@H]1CCCN1C(=O)[C@H](CO)NC(=O)NCCCC(=O)O)C(=O)N[C@@H](CCCNC(=N)N)C(=O)N[C@@H](CCC(N)=O)C(=O)N[C@@H](CCCNC(=N)N)C(=O)N[C@@H](CC1CCCCC1)C(N)=O) [compound No. 293] | 51 | 1.2 | 0.97
2 | (5-carboxypentyl)carbamoyl-[D-Pro24, Pya(4)26, Cha27,36, Aib28,31, Lys30]-PYY(23-36) ({(5-carboxypentyl)carbamoyl}-S[dP]R[4Pal][Cha][Aib]NK[Aib]TRQR[Cha]-NH2; SMILES C[C@@H](O)[C@H](NC(=O)C(C)(C)NC(=O)[C@H](CCCCN)NC(=O)[C@H](CC(N)=O)NC(=O)C(C)(C)NC(=O)[C@H](CC1CCCCC1)NC(=O)[C@H](Cc1ccncc1)NC(=O)[C@H](CCCNC(=N)N)NC(=O)[C@H]1CCCN1C(=O)[C@H](CO)NC(=O)NCCCCCC(=O)O)C(=O)N[C@@H](CCCNC(=N)N)C(=O)N[C@@H](CCC(N)=O)C(=O)N[C@@H](CCCNC(=N)N)C(=O)N[C@@H](CC1CCCCC1)C(N)=O) [compound No. 294] | 45 | 1.2 | 1.5
3 | (Carboxymethyl)carbamoyl-[D-Pro24, Iva25, Pya(4)26, Cha27,36, Aib28,31, Lys30]-PYY(23-36) ({(carboxymethyl)carbamoyl}-S[dP][Iva][4Pal][Cha][Aib]NK[Aib]TRQR[Cha]-NH2; SMILES CC[C@](C)(NC(=O)[C@H]1CCCN1C(=O)[C@H](CO)NC(=O)NCC(=O)O)C(=O)N[C@@H](Cc1ccncc1)C(=O)N[C@@H](CC1CCCCC1)C(=O)NC(C)(C)C(=O)N[C@@H](CC(N)=O)C(=O)N[C@@H](CCCCN)C(=O)NC(C)(C)C(=O)N[C@H](C(=O)N[C@@H](CCCNC(=N)N)C(=O)N[C@@H](CCC(N)=O)C(=O)N[C@@H](CCCNC(=N)N)C(=O)N[C@@H](CC1CCCCC1)C(N)=O)[C@@H](C)O) [compound No. 327] | 58 | 3.0 | 1.6
4 | (Carboxymethyl)carbamoyl-[D-Pro24, Pya(4)26, Cha27,36, Aib28,31, Lys30]-PYY(23-36) ({(carboxymethyl)carbamoyl}-S[dP]R[4Pal][Cha][Aib]NK[Aib]TRQR[Cha]-NH2; ends and bridges not checked) [compound No. 287] | 42 | 1.2 | 1.2
5 | (Tetrahydro-2H-pyran-4-yl)carbamoyl-[D-Pro24, Iva25, Pya(4)26, Cha27,36, Aib28,31, Lys30]-PYY(23-36) (X7-S[dP][Iva][4Pal][Cha][Aib]NK[Aib]TRQR[Cha]-NH2; SMILES CC[C@](C)(NC(=O)[C@H]1CCCN1C(=O)[C@H](CO)NC(=O)NC1CCOCC1)C(=O)N[C@@H](Cc1ccncc1)C(=O)N[C@@H](CC1CCCCC1)C(=O)NC(C)(C)C(=O)N[C@@H](CC(N)=O)C(=O)N[C@@H](CCCCN)C(=O)NC(C)(C)C(=O)N[C@H](C(=O)N[C@@H](CCCNC(=N)N)C(=O)N[C@@H](CCC(N)=O)C(=O)N[C@@H](CCCNC(=N)N)C(=O)N[C@@H](CC1CCCCC1)C(N)=O)[C@@H](C)O) [compound No. 330] | 36 | 1.7 | 1.8
6 | (Tetrahydro-2H-pyran-4-yl)carbonyl-[D-Pro24, Iva25, Pya(4)26, Cha27,36, Aib28,31, Lys30]-PYY(23-36) (Tetrahydropyran4carbonyl-S[dP][Iva][4Pal][Cha][Aib]NK[Aib]TRQR[Cha]-NH2; SMILES CC[C@](C)(NC(=O)[C@H]1CCCN1C(=O)[C@H](CO)NC(=O)C1CCOCC1)C(=O)N[C@@H](Cc1ccncc1)C(=O)N[C@@H](CC1CCCCC1)C(=O)NC(C)(C)C(=O)N[C@@H](CC(N)=O)C(=O)N[C@@H](CCCCN)C(=O)NC(C)(C)C(=O)N[C@H](C(=O)N[C@@H](CCCNC(=N)N)C(=O)N[C@@H](CCC(N)=O)C(=O)N[C@@H](CCCNC(=N)N)C(=O)N[C@@H](CC1CCCCC1)C(N)=O)[C@@H](C)O) [compound No. 342] | 36 | 3.3 | 1.9
7 | (Tetrahydro-2H-pyran-4-yl)carbonyl-[D-Pro24, Pya(4)26, Cha27,36, Aib28,31, Lys30]-PYY(23-36) (Tetrahydropyran4carbonyl-S[dP]R[4Pal][Cha][Aib]NK[Aib]TRQR[Cha]-NH2; SMILES C[C@@H](O)[C@H](NC(=O)C(C)(C)NC(=O)[C@H](CCCCN)NC(=O)[C@H](CC(N)=O)NC(=O)C(C)(C)NC(=O)[C@H](CC1CCCCC1)NC(=O)[C@H](Cc1ccncc1)NC(=O)[C@H](CCCNC(=N)N)NC(=O)[C@H]1CCCN1C(=O)[C@H](CO)NC(=O)C1CCOCC1)C(=O)N[C@@H](CCCNC(=N)N)C(=O)N[C@@H](CCC(N)=O)C(=O)N[C@@H](CCCNC(=N)N)C(=O)N[C@@H](CC1CCCCC1)C(N)=O) [compound No. 324] | 42 | 1.1 | 0.71
8 | (Tetrahydro-2H-pyran-4-ylmethyl)carbamoyl-[D-Pro24, Iva25, Pya(4)26, Cha27,36, Aib28,31, Lys30]-PYY(23-36) (X2-S[dP][Iva][4Pal][Cha][Aib]NK[Aib]TRQR[Cha]-NH2; SMILES CC[C@](C)(NC(=O)[C@H]1CCCN1C(=O)[C@H](CO)NC(=O)NCC1CCOCC1)C(=O)N[C@@H](Cc1ccncc1)C(=O)N[C@@H](CC1CCCCC1)C(=O)NC(C)(C)C(=O)N[C@@H](CC(N)=O)C(=O)N[C@@H](CCCCN)C(=O)NC(C)(C)C(=O)N[C@H](C(=O)N[C@@H](CCCNC(=N)N)C(=O)N[C@@H](CCC(N)=O)C(=O)N[C@@H](CCCNC(=N)N)C(=O)N[C@@H](CC1CCCCC1)C(N)=O)[C@@H](C)O) [compound No. 340] | 27 | 1.7 | 1.9
9 | (Tetrahydro-2H-pyran-4-ylmethyl)carbamoyl-[D-Pro24, Pya(4)26, Cha27,36, Aib28,31, Lys30]-PYY(23-36) (X2-S[dP]R[4Pal][Cha][Aib]NK[Aib]TRQR[Cha]-NH2; SMILES C[C@@H](O)[C@H](NC(=O)C(C)(C)NC(=O)[C@H](CCCCN)NC(=O)[C@H](CC(N)=O)NC(=O)C(C)(C)NC(=O)[C@H](CC1CCCCC1)NC(=O)[C@H](Cc1ccncc1)NC(=O)[C@H](CCCNC(=N)N)NC(=O)[C@H]1CCCN1C(=O)[C@H](CO)NC(=O)NCC1CCOCC1)C(=O)N[C@@H](CCCNC(=N)N)C(=O)N[C@@H](CCC(N)=O)C(=O)N[C@@H](CCCNC(=N)N)C(=O)N[C@@H](CC1CCCCC1)C(N)=O) [compound No. 325] | 47 | 0.82 | 0.7
